One block for each substance: values may come before it.
Columns and labels:
[1] = molecular target: A1/A3-C1-C2 heterodimer of thrombin-cleaved FVIII (human) (UniProt P00451); test: optical biosensor, after thrombin cleavage of purified protein
[2] = molecular target: FVIII mutant L/L 2251/2252 L/S (L2252S) (UniProt P00451)
[3] = molecular target: FVIII mutant M/F 2199/2200 W/W (UniProt P00451)
[4] = molecular target: FVIII mutant M/F/L 2199/2200/2252 W/W/S (UniProt P00451)
[5] = molecular target: von Willebrand factor (vWF) (human) (UniProt P04275); test: in vitro binding to vWF; method not given
[6] = molecular target: wild-type FVIII (human) (UniProt P00451); test: cell-based or functional assay
[7] = molecular target: IR8 (90/b/73 R336I/R562K/R740A; del795-1688/Arg336Iso/Arg562Lys/Arg740Ala) (human) (UniProt P00451); test: cell-based or functional assay
[8] = molecular target: IR8 (90/b/73 R336I/R562K/R740A; del795-1688/Arg336Iso/Arg562Lys/Arg740Ala) (human) (UniProt P00451); test: biosensor; IR8 (30 nM) captured on immobilised Mab NMC-VIII/5, vWF added at 10 nM
[9] = molecular target: von Willebrand factor (vWF) (human) (UniProt P04275); test: summary of ELISA and biosensor results
[10] = molecular target: von Willebrand factor (vWF) (human) (UniProt P04275); test: ELISA and affinity biosensor analysis
[11] = molecular target: von Willebrand factor (vWF) (human) (UniProt P04275); test: FVIII-vWF binding ELISA; anti-A2 domain trap, vWF from FVIII-deficient plasma, peroxidase anti-vWF detection

fold increased rate of A2 subunit dissociation compared to a B domainless FVIII control [1]: 2 fold
Substance: A2 subunit of thrombin-cleaved R698L B-domainless FVIII (from UniProt P00451 392-759)

Kd [5]: 0.3 nM
Substance: wild-type FVIII (from UniProt P00451 20-2351)

% Of Initial Activity, +ESH8 (APTT after 4 hour incubation at 37 C with FVIII-deficient plasma) [6]: 29%
% Of Initial Activity, +ESH8 (APTT after 4 hour incubation at 37 C with FVIII-deficient plasma) [7]: 120%
Substance: ESH8, mouse monoclonal anti-light chain factor VIII antibody (American Diagnostica)

Continued, substance first:

Substance: A2 subunit of thrombin-cleaved R698W B-domainless FVIII (from UniProt P00451 392-759)
fold increased rate of A2 subunit dissociation compared to a B domainless FVIII control [1]: 3 fold

Substance: factor IXa
apparent affinity for factor IXa, Xase assay with 15% PS [2]: reduced 5-fold
apparent affinity of factor IXa, Xase assay with saturating PL, 1000 uM [2]: decreased approximately 4-fold
apparent affinity for factor IXa, Xase assay with 15% PS [3]: reduced 5-fold
apparent affinity of factor IXa, Xase assay with saturating PL, 1000 uM [3]: decreased approximately 4-fold
apparent affinity for factor IXa, Xase assay with 15% PS [4]: reduced 5-fold
apparent affinity of factor IXa, Xase assay with saturating PL, 1000 uM [4]: decreased approximately 4-fold

Substance: von Willebrand factor (vWF) (from UniProt P04275 764-2813)
Kd [8]: 29.6 nM
koff [8]: 0.0042 s⁻¹
kon [8]: 140000 M⁻¹ s⁻¹

Substance: IR8 (90/b/73 R336I/R562K/R740A; del795-1688/Arg336Iso/Arg562Lys/Arg740Ala) (from UniProt P00451 20-812; P00451 1708-2351)
fold lower affinity than FVIII WT [9]: > 10 fold
fold reduced affinity compared to rFVIII [10]: 20 fold
fold lower binding affinity compared to wild-type FVIII [11]: 10 fold

Substance: IR8/ESH8 complex (from UniProt P00451 20-812; P00451 1708-2351)
Kd [5]: 1.3 nM
fold lower binding affinity compared to wild-type FVIII [11]: 2 fold
